The text below walks through data of publication PMC7578760.

One series concerns the target CIC-HMG (UniProt Q96RK0-2 188-288). The series is described as follows: ITC. (Isothermal titration calorimetry measures the heat released or taken up as one component is titrated into another.)
Series [1] concerns the target T1, CIC-HMG/C1 fusion (UniProt Q96RK0-2 188-288+1401-1608, internal_change). In words: ITC.
The target in series [2] is T1, CIC-HMG/C1 fusion. In words: EMSA.

B1: DUSP6 site #4 (ITC) (dsDNA)
DNA 1: TTGGATTTCATTCACTGGGG
DNA 2: CCCCAGTGAATGAAATCCAA
On to B1, for which the binding result with CIC-HMG is “no binding”; with CIC-HMG/C1 fusion [1], “binds”.

B2: DUSP6 site #5 (EMSA) (dsDNA)
DNA 1: GGCAGCTTCATTGAGAGAGA
DNA 2: TCTCTCTCAATGAAGCTGCC
For B2, the binding result with CIC-HMG/C1 fusion [2] is on record as “binds”.

B3: DUSP6 site #5 (ITC) (dsDNA)
DNA 1: GGCAGCTTCATTGAGAGAGA
DNA 2: TCTCTCTCAATGAAGCTGCC
With B3, the binding result in the series with CIC-HMG/C1 fusion [1] was “binds”.

B4: DUSP6 site #4 (EMSA) (dsDNA)
DNA 1: TTGGATTTCATTCACTGGGG
DNA 2: CCCCAGTGAATGAAATCCAA
In the case of B4, in the series with CIC-HMG/C1 fusion [2], the binding result was “binds”.

B5: DUSP6 mutant site #4 (EMSA) (dsDNA)
DNA 1: TTGGATTTAGCTCACTGGGG
DNA 2: CCCCAGTGAGCTAAATCCAA
With B5, the binding result in the series with CIC-HMG/C1 fusion [2] was “no binding”.

B6: DUSP6 site #6 (ITC) (dsDNA)
DNA 1: GAGAGATTCATTGACACTAA
DNA 2: TTAGTGTCAATGAATCTCTC
As for B6, the binding result with CIC-HMG/C1 fusion [1] is given as “binds”.

B7: DUSP6 site #6 (EMSA) (dsDNA)
DNA 1: GAGAGATTCATTGACACTAA
DNA 2: TTAGTGTCAATGAATCTCTC
Turning to B7, in the series with CIC-HMG/C1 fusion [2], the binding result is listed as “binds”.
